Experimental data as given in patent US8871276B2, “Beta-casein assemblies for mucosal delivery of therapeutic bioactive agents” (Technion Research and Development Foundation Ltd., priority 2008, dated 2014).
Where “and” joins values, the source holds several entries; their conditions need not be identical. Equal entries are not always repeated.

Legend:
Assay type in all cases: physicochemical
[1] = Light microscopy (Nomarski DIC) / visual solubility observation; details: hepes buffer, neutral pH, with or without β-casein
Procedure: An Olympus BX51 light microscope was operated at Nomarski differential interference contrast (DIC) optics. A 5 μL drop was placed on a glass slide, covered with a cover slide. Images were recorded digitally with an Olympus DP71 digital camera connected to the light microscope. Image processing was performed using Cell A (Olympus).
Bovine β-casein (>90%; Sigma-Aldrich) was dissolved in pH 7.0 hepes buffer containing 200 mM hepes (MP Biomedicals), 10 mM MgCl2 (Sigma-Aldrich), 20 mM EGTA (Sigma-Aldrich) and 10 mM NaCl (Loba Chemie), and was placed over-night at 4° C. under stirring. The protein solutions were prepared at concentrations ranging from 0.5 to 2 wt % (0.21 to 0.83 mM respectively), and were filtered through a porous membrane of 0.45 μm to avoid large protein aggregates. […] Stirring continued for 30 minutes in room temperature. […] The specimens remained stable i.e., no precipitation was observed, for at least 3 weeks at 4° C.

[2] = Water content by Karl Fischer Coulometer
Procedure: In this experiment the water content of celocoxib (CXB), beta-casein (β-CN) 1% nanocarriers, Sigma beta-casein (β-CN, Sigma material), and CXB-loaded β-CN 1% nanocarriers was measured by Metrohm 831 Karl Fischer Coulometer.
In an attempt to reduce the water content, an additional lypholization cycle was performed for the empty and CXB-loaded β-CN 1% nanocarriers. After this second lyophilization cycle water content was measured by Metrohm 831 Karl Fischer Coulometer.
Specifically, the first cycle lasted for 24 hours (data is presented in tables 5-7) then all samples were subjected to an additional cycle of lyophilization that lasted for 48 hours (total of 72 hours). Tables 8 and 9 present the results of samples that were subjected to 24, […], and 72 hours of lyophilization.

[3] = Small angle X-ray scattering (SAXS) of micelles; details: 1 wt % β-casein, empty or loaded 1:8 protein:celecoxib, pH ~7
[4] = Small angle X-ray scattering (SAXS) of micelles; details: 1 wt % β-casein, empty or loaded 1:8 protein:celecoxib, pH ~7; remark: listed apart in the source
Procedure: The small angle X-ray scattering equipment consisted of a SAXSess camera (Anton-Paar, Graz, Austria) connected to an X-ray generator (Philips, PW 1730/10) operating at 40 kV and 50 mA with a sealed-tube Cu anode. A Gael mirror was used to convert the divergent polychromatic X-ray beam into a focused line-shaped beam of Cu Kα radiation (λ=0.154 nm). The 2D scattering pattern was recorded by a PI-SCX fused fiber optic taper CCD camera from Princeton Instruments, which is a division of Roper Scientific, Inc. (Trenton, N.J., USA). The used CCD detector features a 2084×2084 array with 24×24 μm pixel size (chip size: 50×50 mm). The CCD was operated at −30° C. with 10° C. water-assisted cooling to reduce the thermally generated charge. Cosmic ray correction and background subtraction were performed on the 2D image before further data processing. The 2D image was integrated into the one-dimensional scattering function within a band of 10 mm. The measurement time was 30 min for each scattering curve (6 images of 5 minutes were taken to assist the cosmic ray correction).
The molecular weight of the scattering aggregates were calculated according to Eq. 1:
[formula] where M is the molecular weight, dΣ(0)/dΩ (cm^−1) the forward scattering intensity at q=0, c (g/cm^3) the β-casein concentration, NA the Avogadro number, and ΔρM (cm/g) the scattering length difference per mass, given by: ΔρM=Δρ ν (2)
The scattering length difference Δρ (cm^−2) was calculated using the known chemical composition of the protein and the solvent, and ν (cm^3/g), the specific volume of the protein in the solution that was calculated via density measurement of the solvent and the solution. The micelle aggregation number was then calculated by dividing the molecular weight of the micelles determined with Eq. 1, by the molecular weight of a single protein molecule.
For a particle of arbitrary shape with a scattering density difference of Δρ(r), the pair distance distribution function p(r) (PDDF) is given by: p(r)=r^2Δ ρ^2(r) (3) where Δ ρ^2(r) is the convolution square of Δρ(r) averaged for all directions in space. The PDDF is related to the scattered intensity l(q) by a Fourier transformation, and it enables the determination of the overall shape and size of the scattering objects.
[formula] λ is the wavelength of the incident radiation and θ is the angle between the scattered and incident beam. The function ƒ(r)=p(r)/r (6) is useful to identify flat plate-like particles, although it has no direct physical meaning. For lamellae, this function starts with a linearly increasing part and becomes almost flat when r is equal to the thickness of the lamella. For flat particles with a finite base area, the outer part decreases linearly because of boundary losses. The thickness of the lamella can then be read from the transition point.
The structural characteristics of the micelles in the two pH environments were studied by cryo-TEM and SAXS (Small Angle X-ray Scattering). Cryo-TEM was used to determine the shape of the micelles and to estimate their dimensions between 4 and 40° C. This information was further used to accurately calculate the micelles' dimensions from the SAXS data, and to study how the size and shape are affected by temperature. SAXS measurements also provided the critical micelle concentration (CMC) and the micelle aggregation numbers as a function of temperature. Experiments were performed in the concentration range of 0.1-40 mg/mL protein, at low pH (between 2.1 and 2.6) in dilute lactic acid solution (6 wt %) or HCl and in aqueous solutions at pH 6.7-7.3 in absence of salts or the presence of up to 0.1M NaCl.
SAXS measurements were used to determine the shape and dimensions of the micelles at low pH more precisely, and to evaluate the micelle molecular weight (i.e., the aggregation number). The scattering curves of 20 mg/mL β-casein in lactic acid solution (pH 2.6, IS 0.0022) at different temperatures are shown in FIG. 3a. […]

For `Cc1ccc(-c2cc(C(F)(F)F)nn2-c2ccc(S(N)(=O)=O)cc2)cc1` [Celecoxib, celecoxib, reference compound], the “Solubility in aqueous buffer (observation)” value [1] was “poor solubility”.

In the case of `CC(C)CCC[C@@H](C)[C@H]1CC[C@H]2[C@@H]3CC=C4C[C@@H](O)CC[C@]4(C)[C@H]3CC[C@]12C` [Cholesterol, cholesterol], the “Solubility in aqueous buffer (observation)” value [1] is reported as “does not dissolve in buffer at all”.

B1: β-CN: Sigma beta-casein raw material powder (protein, UniProt P02666 16-224, looked up)
Beta-casein: RELEELNVPGEIVESLSSSEESITRINKKIEKFQSEEQQQTEDELQDKIHPFAQTQSLVYPFPGPIPNSLPQNIPPLTQTPVVVPPFLQPEVMGVSKVKEAMAPKHKEMPFPKYPVEPFTESQSLTLTDVENLHLPLPLLQSWMHQPHQPLPPTVMFPPQSVLSLSQSKVLPVPQKAVPYPQRDMPIQAFLLYQEPVLGPVRGPFPIIV
For B1, the “Average water content of lyophilized (dried) powders” value ([2]; data of Tables 5-7) was “more than 10 % w/w”, the “% water, AVR” value ([2]; β-CN Sigma material, lyophilization time none, average) was 13.0% and the “% water” value ([2]; β-CN Sigma material, single sample) was 15.0% and 9.4% and 14.7%.

B2: β-casein dried: empty β-casein micelles after lyophilization and re-suspension (protein, UniProt P02666 16-224, looked up)
Beta-casein: RELEELNVPGEIVESLSSSEESITRINKKIEKFQSEEQQQTEDELQDKIHPFAQTQSLVYPFPGPIPNSLPQNIPPLTQTPVVVPPFLQPEVMGVSKVKEAMAPKHKEMPFPKYPVEPFTESQSLTLTDVENLHLPLPLLQSWMHQPHQPLPPTVMFPPQSVLSLSQSKVLPVPQKAVPYPQRDMPIQAFLLYQEPVLGPVRGPFPIIV
modifications: lyophilized micelles
notes: empty β-casein micelles after lyophilization and re-suspension
In the case of B2, the Density [3] is reported as 1.23 g/mL, the “Rg (from Guinier apr.)” value [4] is reported as 8.1 nm and the “V, from a, b” value [4] is reported as 2841 nm^3.
